# Data published in US20260176332A1 (BEIJING MDTK BIOTECHNOLOGY, published 2026).
# T1: GSDMD-CT expressed protein (human, UniProt P57764 276-484)
# T1 construct: Recombinantly expressed; also called recombinant GSDMD-CT; C-terminus of GSDMD
# T1 sequence: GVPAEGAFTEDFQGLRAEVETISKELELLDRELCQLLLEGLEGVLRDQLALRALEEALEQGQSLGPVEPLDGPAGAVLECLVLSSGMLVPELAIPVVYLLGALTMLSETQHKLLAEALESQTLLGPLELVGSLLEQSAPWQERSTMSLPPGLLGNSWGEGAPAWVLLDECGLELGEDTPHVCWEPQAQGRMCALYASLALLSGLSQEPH
# T2: Elongated Peptide (SEQ ID NO:5: TDGVPAEGAFTEDFQGLR) (human)
# T2 construct: Synthetic peptide coated on the ELISA plate
# T2 peptide: TDGVPAEGAFTEDFQGLR
# T3: Specific Peptide (SEQ ID NO:4: GVPAEGAFTEDFQGLR) (human)
# T3 construct: Synthetic peptide coated on the ELISA plate; also called polypeptide number #1
# T3 peptide: GVPAEGAFTEDFQGLR
# B1: MD2106 #50 (antibody, IgG1, V domains shown)
# VH: QVQLQQPGTELVKPGASVKLSCKASGYTFTNYWIHWVKQRPGQGLEWIGNTKPSNGDIHYNEKFRSKATLTVDKSSSTAYIQLSSLTSEDSAVYFCAVGYYWGQGTTLTVSS
# VL: DIVMTQSPSSLTVTAGEKVTMSCKSSQSLLNSGNQKNYLTWYQQKPGQPPKMLIYWAYNRDSGVPDRFTGSGSGADFTLTISSVQAEDLAVYYCQNDYSYPLTFGAGTKLEL
# notes: Mouse hybridoma monoclonal antibody; heavy chain type IgG1, light chain type kappa; Hybridoma supernatant diluted 100 times in the peptide ELISA; 1 ug/mL antibody, further diluted, in the GSDMD-CT ELISA; also called monoclonal antibody #50; MD2106-#5 #50
# What was measured:
# [1] = target: T1, GSDMD-CT expressed protein; assay: competitive inhibition ELISA, coated GSDMD-CT vs soluble GSDMD-CT (FIG. 5)
# Description: The protein coating amount and antibody dilution concentration were preliminarily determined by checkerboard titration, and the experimental procedure was as follows:
# (1) Coating antigen: The GSDMD-CT expressed protein was diluted with coating solution and coated at 2 ug/ml, 1 ug/ml, 0.5 ug/ml, 0.25 ug/ml, 100 ul/well overnight at 4° C.; washed three times with the washing solution, 350 ul/well, and pat dried. (2) Blocking: 200 ul/well blocking solution, incubated at 37° C. for 2 h; washed three times with the washing solution, 350 ul/well, and pat dried. (3) 1 ug/mL of #25, #44, and #50 antibodies was diluted 1,000 times with antibody diluent, then diluted with a 2-fold gradient, 100 μl/well, and blank was 100 μl of antibody diluent, and the antibodies were incubated at 37° C. for 1 h; washed three times with the washing solution, 350 ul/well, and pat dried. […] (6) Termination, reading: 100 ul/well stop solution was added, reading at OD 450 nm. (7) The dose curve of coating protein relative to antibody was determined. […] (10) 50 ul of sample solutions of different concentrations were added to 50 ul of diluted antibody, and then 100 ul of the mixture was added to the microplate reader plate and incubated for 1 h at 37° C.
# [2] = target: T2, Elongated Peptide (SEQ ID NO:5: …); assay: ELISA, peptide coated at 2 ug/ml, hybridoma supernatant diluted 100 times
# Description: (§1) (1) Coating antigen: Specific Peptide and Elongated Peptide were respectively diluted with the coating solution, and coated at 2 μg/ml, 100 ul/well at 4° C. overnight; washed three times with the washing solution, 350 ul/well, and pat dried. (2) Blocking: 200 ul/well blocking solution, incubated at 37° C. for 2 h; washed three times with the washing solution, 350 ul/well, and pat dried. (3) The antibody (such as #25, #44, or #50) supernatant medium in Table 1 was diluted by 100 times with antibody diluent, 100 ul/well, and the blank was 100 ul antibody dilution, and they were incubated at 37° C. for 1 h; washed three times with the washing solution, 350 ul/well, and pat dried. (4) The secondary antibody was diluted with antibody diluent at a ratio of 1:10000, 100 ul/well, incubated at 37° C. for 1 h; washed three times with the washing solution, 350 ul/well, and pat dried. (5) Color development: 100 ul/well developer was added, incubating 10 min at room temperature. (6) Termination, reading: 100 ul/well stop solution was added, reading at OD 450 nm.
# [3] = target: T3, Specific Peptide (SEQ ID NO:4: …); assay: as above
# Description: as §1
binder,measurement,setting,value
B1,binding result,[1],binds
same,binding result,[2],no binding
same,binding result,[3],binds
